Laboratory results from the supplement of paper PMC9116672.
± gives the standard deviation of the averaged measurements or the uncertainty stated by the source.

Columns and labels:
[1] = duplex melting temperature (HRM, EvaGreen); higher = more stable duplex
Method: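 Listed DNA strand annealed 1:1 with its complementary strand (95 °C 5 min, 0.1 °C/s to 20 °C). Melted in 1x NNE buffer (500 mM NaCl, 10 mM Na2HPO4, 1 mM EDTA, pH 7.0) with 1x EvaGreen on a LightCycler96 (37 to 97 °C, 0.1 °C/s). Tm is the peak of -dF/dT at the stated total duplex concentration; 4 replicates are averaged. PS oligos are non-stereospecific (Rp/Sp mixtures).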

[2] = duplex formation enthalpy ΔH (Van't Hoff fit of HRM Tm); higher = less exothermic duplex formation; conditions: temperature for dG: 50 °C, NaCl: 500 mM (unadjusted)
Method: (§1)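 Duplex of the listed DNA strand with its complement, in 1x NNE buffer (500 mM NaCl, pH 7.0) with 1x EvaGreen. ΔH and ΔS come from a Van't Hoff linear fit of 1/Tm against ln(CT/4) over 1-20 uM, using HRM Tm values.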

[3] = duplex formation free energy ΔG50 (Van't Hoff fit of HRM Tm); higher = less stable duplex; conditions: temperature for dG: 50 °C, NaCl: 500 mM (unadjusted)
Method: as §1

[4] = duplex formation entropy ΔS (Van't Hoff fit of HRM Tm); higher = smaller entropy loss on duplex formation; conditions: temperature for dG: 50 °C, NaCl: 500 mM (unadjusted)
Method: as §1

[5] = duplex concentration 1 µM, backbone: PO-PO (both strands phosphodiester DNA)
[6] = duplex concentration 1 µM, backbone: PS-PO (listed strand fully phosphorothioate, complement phosphodiester)
[7] = duplex concentration 1 µM, backbone: PS-PS (both strands fully phosphorothioate)
[8] = duplex concentration 2.5 µM, backbone: PO-PO (both strands phosphodiester DNA)
[9] = duplex concentration 2.5 µM, backbone: PS-PO (listed strand fully phosphorothioate, complement phosphodiester)
[10] = duplex concentration 2.5 µM, backbone: PS-PS (both strands fully phosphorothioate)
[11] = duplex concentration 5 µM, backbone: PO-PO (both strands phosphodiester DNA)
[12] = duplex concentration 5 µM, backbone: PS-PO (listed strand fully phosphorothioate, complement phosphodiester)
[13] = duplex concentration 5 µM, backbone: PS-PS (both strands fully phosphorothioate)
[14] = duplex concentration 7.5 µM, backbone: PO-PO (both strands phosphodiester DNA)
[15] = duplex concentration 7.5 µM, backbone: PS-PO (listed strand fully phosphorothioate, complement phosphodiester)
[16] = duplex concentration 7.5 µM, backbone: PS-PS (both strands fully phosphorothioate)
[17] = duplex concentration 10 µM, backbone: PO-PO (both strands phosphodiester DNA)
[18] = duplex concentration 10 µM, backbone: PS-PO (listed strand fully phosphorothioate, complement phosphodiester)
[19] = duplex concentration 10 µM, backbone: PS-PS (both strands fully phosphorothioate)
[20] = duplex concentration 15 µM, backbone: PO-PO (both strands phosphodiester DNA)
[21] = duplex concentration 15 µM, backbone: PS-PO (listed strand fully phosphorothioate, complement phosphodiester)
[22] = duplex concentration 15 µM, backbone: PS-PS (both strands fully phosphorothioate)
[23] = duplex concentration 20 µM, backbone: PO-PO (both strands phosphodiester DNA)
[24] = duplex concentration 20 µM, backbone: PS-PO (listed strand fully phosphorothioate, complement phosphodiester)
[25] = duplex concentration 20 µM, backbone: PS-PS (both strands fully phosphorothioate)
[26] = backbone: PO-PO (both strands phosphodiester DNA)
[27] = backbone: PS-PO (listed strand fully phosphorothioate, complement phosphodiester)
[28] = backbone: PS-PS (both strands fully phosphorothioate)

Sequence	duplex melting temperature [1, 5] [°C]	duplex melting temperature [1, 6] [°C]	duplex melting temperature [1, 7] [°C]	duplex melting temperature [1, 8] [°C]	duplex melting temperature [1, 9] [°C]	duplex melting temperature [1, 10] [°C]	duplex melting temperature [1, 11] [°C]	duplex melting temperature [1, 12] [°C]	duplex melting temperature [1, 13] [°C]	duplex melting temperature [1, 14] [°C]	duplex melting temperature [1, 15] [°C]	duplex melting temperature [1, 16] [°C]	duplex melting temperature [1, 17] [°C]	duplex melting temperature [1, 18] [°C]	duplex melting temperature [1, 19] [°C]	duplex melting temperature [1, 20] [°C]	duplex melting temperature [1, 21] [°C]	duplex melting temperature [1, 22] [°C]	duplex melting temperature [1, 23] [°C]	duplex melting temperature [1, 24] [°C]	duplex melting temperature [1, 25] [°C]	duplex formation enthalpy ΔH [2, 26] [kcal/mol]	duplex formation enthalpy ΔH [2, 27] [kcal/mol]	duplex formation enthalpy ΔH [2, 28] [kcal/mol]	duplex formation free energy ΔG50 [3, 26] [kcal/mol]	duplex formation free energy ΔG50 [3, 27] [kcal/mol]	duplex formation free energy ΔG50 [3, 28] [kcal/mol]	duplex formation entropy ΔS [4, 26] [cal/mol/K]	duplex formation entropy ΔS [4, 27] [cal/mol/K]	duplex formation entropy ΔS [4, 28] [cal/mol/K]
GAACCGTTGATGATCTC	63.4	54.79 ± 0.14	46.68 ± 0.22	65.33 ± 0.31	57.31 ± 0.16	49.91 ± 0.24	67.16 ± 0.13	59.39 ± 0.12	51.98 ± 0.084	68.29 ± 0.098	60.41 ± 0.13	53.01 ± 0.082	69.2 ± 0.096	61.285 ± 0.052	53.86 ± 0.097	70.38 ± 0.088	62.38 ± 0.1	54.9 ± 0.045	71.31 ± 0.079	63.117 ± 0.054	55.75 ± 0.06	-80.1 ± 1.6	-78.8 ± 1.7	-70.3 ± 2.3	-12.78 ± 0.09	-10.93 ± 0.053	-9.101 ± 0.027	-208 ± 4.8	-210 ± 5	-189 ± 7.2
TAATTATACGAGTAGTTTCTGTCCTG	71.48 ± 0.47	62.1 ± 1.3	53.5 ± 0.9	72.48 ± 0.47	63.7 ± 0.66	55.8 ± 0.57	73.57 ± 0.43	65.23 ± 0.59	57.27 ± 0.51	74.63 ± 0.29	65.94 ± 0.5	58.41 ± 0.21	75.37 ± 0.084	66.63 ± 0.26	59.23 ± 0.13	76.277 ± 0.049	67.43 ± 0.14	60.07 ± 0.12	77.05 ± 0.094	67.855 ± 0.049	60.84 ± 0.17	-127 ± 9.7	-115 ± 4.5	-89.9 ± 1.6	-17.6 ± 0.68	-13.9 ± 0.21	-10.75 ± 0.039	-340 ± 28	-312 ± 13	-245 ± 4.8
TGTAAGACTTCTGCCAGAAA	69.04 ± 0.47	–	51.3 ± 0.66	70.48 ± 0.32	62.5 ± 0.74	54 ± 0.63	71.8 ± 0.086	64.36 ± 0.58	56.14 ± 0.29	72.66 ± 0.2	65.49 ± 0.58	57.54 ± 0.21	73.31 ± 0.13	66.18 ± 0.34	58.2	73.99 ± 0.12	67.16 ± 0.27	–	–	67.83 ± 0.18	–	-126 ± 6.9	-87.2 ± 3.7	-73.5 ± 1.4	-16.7 ± 0.45	-12.4 ± 0.17	-10.11 ± 0.025	-339 ± 20	-231 ± 11	-196 ± 4.2
GAACTGCCACTACCAA	63.2	–	48.68 ± 0.086	64.85 ± 0.39	58.65 ± 0.087	52.19 ± 0.14	67.25 ± 0.085	60.93 ± 0.068	54.589 ± 0.051	68.57 ± 0.17	62.25 ± 0.15	55.833 ± 0.044	69.531 ± 0.05	63.17 ± 0.12	56.65 ± 0.09	71 ± 0.09	64.25 ± 0.11	57.7 ± 0.15	71.922 ± 0.013	65.26 ± 0.12	58.53 ± 0.13	-69.8 ± 2	-70.8 ± 1.6	-65.1 ± 2.6	-12.27 ± 0.11	-11.04 ± 0.059	-9.573 ± 0.046	-178 ± 5.8	-185 ± 4.7	-172 ± 7.9
TATTCTGCCAATGGAAC	61.28 ± 0.28	52.9	45.3 ± 0.74	63.72 ± 0.46	56.19 ± 0.12	48.29 ± 0.081	65.46 ± 0.21	58.32 ± 0.085	50.06 ± 0.16	66.751 ± 0.054	59.47 ± 0.085	51.303 ± 0.046	67.63 ± 0.082	60.21 ± 0.12	52.24 ± 0.13	68.883 ± 0.048	61.27 ± 0.062	53.39 ± 0.22	69.87 ± 0.1	62.27 ± 0.081	54.28 ± 0.14	-79.9 ± 2.2	-75.2 ± 2	-69.8 ± 2.2	-12.43 ± 0.11	-10.59 ± 0.059	-8.755 ± 0.02	-209 ± 6.6	-200 ± 6.1	-189 ± 6.7
GGTGGCGTTCTT	–	–	40.15 ± 0.21	61.9	–	44.6 ± 0.65	63 ± 0.79	–	48.03 ± 0.26	64.6 ± 0.54	57	49.76 ± 0.44	65.58 ± 0.13	58.31 ± 0.53	51.3 ± 0.97	66.42 ± 0.23	60.44 ± 0.39	53.7 ± 1.4	67.68 ± 0.13	61.54 ± 0.24	55.8 ± 0.86	–	-45.3 ± 2.7	-41.1 ± 3.2	–	-9.41 ± 0.08	-8.491 ± 0.033	–	-111 ± 8.2	-101 ± 9.8
TGTCGCACCCTACTA	62.8 ± 2.6	–	49.8 ± 0.68	66.1	59.14 ± 0.13	53.99 ± 0.17	68.24 ± 0.43	61.72 ± 0.17	56.51 ± 0.21	69.66 ± 0.3	62.92 ± 0.17	57.65 ± 0.22	71.02 ± 0.2	64.01 ± 0.12	58.5 ± 0.23	72.66 ± 0.19	65.449 ± 0.05	59.67 ± 0.14	73.62 ± 0.15	66.44 ± 0.098	60.75 ± 0.17	-63.3 ± 4.2	-64.2 ± 1.2	-60.7 ± 3.1	-12.1 ± 0.25	-10.95 ± 0.05	-9.838 ± 0.072	-158 ± 12	-165 ± 3.6	-157 ± 9.5
CTCAGAGTAGAGCCGA	63.68 ± 0.069	57.92 ± 0.21	49.9 ± 1.1	65.7 ± 0.74	60.75 ± 0.31	53.32 ± 0.14	68.22 ± 0.15	63.08 ± 0.2	55.65 ± 0.051	69.47 ± 0.26	64.34 ± 0.11	56.75 ± 0.12	70.41 ± 0.2	65.17 ± 0.17	57.39 ± 0.097	71.91 ± 0.23	66.49 ± 0.15	58.63 ± 0.12	72.85 ± 0.2	67.47 ± 0.082	59.42 ± 0.24	-70.2 ± 2.2	-70.4 ± 1.1	-68.5 ± 2.8	-12.5 ± 0.13	-11.45 ± 0.047	-9.827 ± 0.057	-179 ± 6.5	-183 ± 3.4	-182 ± 8.6
CAAACTTAGTAATCACGCCCAGCAACCA	78.3 ± 0.4	71.41 ± 0.5	62.3 ± 0.89	79.54 ± 0.39	72.56 ± 0.53	64.34 ± 0.43	80.55 ± 0.61	73.83 ± 0.46	65.81 ± 0.35	81.42 ± 0.21	74.22 ± 0.47	66.74 ± 0.11	82.09 ± 0.11	74.81 ± 0.22	67.319 ± 0.064	82.922 ± 0.079	75.66 ± 0.16	67.904 ± 0.048	83.591 ± 0.062	76.275 ± 0.049	68.51 ± 0.1	-141 ± 8.4	-149 ± 7.5	-112 ± 3.5	-21 ± 0.74	-19 ± 0.52	-13.9 ± 0.17	-372 ± 24	-404 ± 22	-303 ± 10
